Results: article PMC11094003, “Chemical manipulation of an activation/inhibition switch in the nuclear receptor PXR” (Nature Communications, 2024)

Experiments:
[1] = target: T1, L428V mutant of human pregnane X receptor ligand binding domain (residues 130-434) (human, UniProt O75469 130-434, L428V); assay: crystal structure; PXR L428V LBD tethered to the SRC-1 peptide on one chain, apo and with the antagonist SJPYT-331; 50 mM Bis-Tris pH 6-7, 10-20% MPD, 20 °C; conditions: both partners purified
T1 construct: As m1, one polypeptide with the SRC-1 peptide: His6 - PXR 130-434 (L428V) - SGGSGG linker - SRC-1 678-710; also called PXR^L428V LBD; source: E. coli BL21(DE3), purified (HisTrap, HiTrap SP flow-through, Superdex 200 SEC)
T1 sequence (looked up): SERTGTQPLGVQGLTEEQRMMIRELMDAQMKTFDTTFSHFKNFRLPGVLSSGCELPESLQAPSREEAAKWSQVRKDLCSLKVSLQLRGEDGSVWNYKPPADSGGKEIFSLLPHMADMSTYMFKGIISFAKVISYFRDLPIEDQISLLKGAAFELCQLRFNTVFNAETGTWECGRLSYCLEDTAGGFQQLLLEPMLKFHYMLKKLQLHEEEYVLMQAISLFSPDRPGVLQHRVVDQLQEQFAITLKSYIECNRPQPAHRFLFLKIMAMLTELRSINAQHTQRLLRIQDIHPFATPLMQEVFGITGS

[2] = target: T2, human pregnane X receptor ligand binding domain (residues 130-434) (human, UniProt O75469 130-434); assay: crystal structure; PXR LBD tethered to the SRC-1 peptide on one chain, co-crystallised with an antagonist (SJPYT-310, SJPYT-278, SJPYT-312 or SJPYT-331; 2:1 ligand to protein); 50 mM Bis-Tris pH 6-7, 10-20% MPD, 20 °C; conditions: both partners purified
T2 construct: In the crystallised construct this domain and the SRC-1 peptide are one polypeptide: His6 - PXR 130-434 - SGGSGG linker - SRC-1 678-710; Written here as a molecule of its own for the pair PXR LBD / SRC-1; also called PXR LBD; WT PXR LBD; source: E. coli BL21(DE3), purified (HisTrap, HiTrap SP flow-through, Superdex 200 SEC)
T2 sequence (looked up): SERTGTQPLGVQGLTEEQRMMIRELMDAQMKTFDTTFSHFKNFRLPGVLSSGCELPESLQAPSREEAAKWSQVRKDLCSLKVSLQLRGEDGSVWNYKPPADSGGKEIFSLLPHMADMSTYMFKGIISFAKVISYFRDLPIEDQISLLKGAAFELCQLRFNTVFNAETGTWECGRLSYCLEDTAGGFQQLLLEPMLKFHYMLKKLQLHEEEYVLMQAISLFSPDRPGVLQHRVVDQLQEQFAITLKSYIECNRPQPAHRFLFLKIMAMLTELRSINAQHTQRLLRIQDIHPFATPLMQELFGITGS

B1: SRC-1 peptide (residues 678-710), 33 amino acids (peptide, UniProt Q15788 678-710, looked up)
chain: SSHSSLTERHKILHRLLQEGSPSDITTLSVEPD
notes: Not a free peptide: tethered to the C-terminus of PXR LBD (m1 or m3) through an SGGSGG linker on one chain; also called tethered SRC-1 peptide
Q: Does B1 bind [1]?
A: binds

Q: Does B1 bind [2]?
A: binds
